Experimental data reported in the supplement of paper PMC7877785.
± gives the uncertainty stated by the source.

Assay: self-splicing fitness, log relative to wild type (ln ratio); higher = more splicing; Tetrahymena group I intron in knt gene, E. coli kanamycin selection, DiMSum; sequences stand for … in CUCUCU…GGAGGGAAAAGUUAUCAGGCAUGCACCUGGUAGCUAGUCUUUAAACCAAUAGAUUGCAUCGGUUUAAAAGGCAAGACCGUCAAAUUGCGGGAAAGGGGUCAACAGCCGUUCAGUACCAAGUCUCAGGGGAAACUUUGAGAUGGCCUUGCAAAGGGUAUGGUAAUAAGCUGACGGACAUGGUCCUAACCACGCAGCCAAGUCCUAAGUCAACAGAUCUUCUGUUGAUAUGGAUGCAGUUCACAGACUAAAUGUCGGUCGGGGAAGAUGUAUUCUUCUCAUAAGAUAUAGUCGGACCUCUCCUUAAUGGGAGCUAGCGGAUGAAGUGAUGCAACACUGGAGCCGCUGGGAACUAAUUUGUAUGCGAAAGUAUAUUGAUUAGUUUUGGAGUACUCGUGGUCG
In short: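 Pooled colonies went to amplicon sequencing on an Illumina HiSeq 2500 after six replicate transformations. The plates were LB agar with 100 μg/mL carbenicillin, 50 μM IPTG and 0.2% rhamnose, with or without 25 μg/mL kanamycin, incubated overnight at 37°C or 30°C. The E. coli BL21(DE3) library had all eight P1ex-region intron nucleotides randomised, the intron placed in the knt kanamycin-resistance gene on pET-22b(+). DiMSum fitness is the error-weighted combination of replicate fold changes, kanamycin against none, normalised to wild type.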

With UCAUAGCAAUAUUACGAUUG the “self-splicing fitness (ln)” value (30 °C) was -2.31 ± 0.13 and the “self-splicing fitness (ln)” value (37 °C) was -1.38 ± 0.13.

For UCAUAGCAAUAUUACGCAAG, the “self-splicing fitness (ln)” value (30 °C) was -1.94 ± 0.15 and the “self-splicing fitness (ln)” value (37 °C) was -2.04 ± 0.2.

In the case of UCAUAGCAAUAUUACGCCGU, the “self-splicing fitness (ln)” value (30 °C) is reported as -3.49 ± 0.34 and the “self-splicing fitness (ln)” value (37 °C) is reported as -1.85 ± 0.39.

For UCAUAGCAAUAUUACGCGUC, the “self-splicing fitness (ln)” value (30 °C) was -3.76 ± 0.31.

For UCAUAGCAAUAUUACGGGCG, the “self-splicing fitness (ln)” value (30 °C) was -1.12 ± 0.096 and the “self-splicing fitness (ln)” value (37 °C) was -0.909 ± 0.12.

For UCAUAGCAAUAUUACGGUCC, the “self-splicing fitness (ln)” value (30 °C) was -3.53 ± 0.37 and the “self-splicing fitness (ln)” value (37 °C) was -1.81 ± 0.35.

With UCAUAGCAAUAUUACGGUUG the “self-splicing fitness (ln)” value (30 °C) was -3.07 ± 0.19 and the “self-splicing fitness (ln)” value (37 °C) was -1.94 ± 0.17.

For UCAUAGCAAUAUUACGUAGU, the “self-splicing fitness (ln)” value (30 °C) was -3.07 ± 0.21 and the “self-splicing fitness (ln)” value (37 °C) was -2.17 ± 0.28.

With UCAUAGCAAUAUUACGUCAA the “self-splicing fitness (ln)” value (30 °C) was -2.44 ± 0.32.

In the case of UCAUAGCAAUAUUACGUUAA, the “self-splicing fitness (ln)” value (37 °C) is reported as -3.44 ± 0.42.

For UCAUAGCAAUAUUACGUUAG, the “self-splicing fitness (ln)” value (30 °C) was -2.9 ± 0.25 and the “self-splicing fitness (ln)” value (37 °C) was -1.66 ± 0.19.

For UCCAAGCAAUAUUACGAACA, the “self-splicing fitness (ln)” value (30 °C) was -1.87 ± 0.14 and the “self-splicing fitness (ln)” value (37 °C) was -0.969 ± 0.13.

With UCCAAGCAAUAUUACGAGAC the “self-splicing fitness (ln)” value (37 °C) was -2.23 ± 0.29.

With UCCAAGCAAUAUUACGAGGC the “self-splicing fitness (ln)” value (30 °C) was -3.67 ± 0.23 and the “self-splicing fitness (ln)” value (37 °C) was -2.26 ± 0.22.

With UCCAAGCAAUAUUACGAUAG the “self-splicing fitness (ln)” value (30 °C) was -2.81 ± 0.13 and the “self-splicing fitness (ln)” value (37 °C) was -2.98 ± 0.21.

With UCCAAGCAAUAUUACGCGCG the “self-splicing fitness (ln)” value (30 °C) was -2.95 ± 0.17 and the “self-splicing fitness (ln)” value (37 °C) was -1.49 ± 0.23.

For UCCAAGCAAUAUUACGCGGC, the “self-splicing fitness (ln)” value (30 °C) was -2.74 ± 0.23 and the “self-splicing fitness (ln)” value (37 °C) was -2.94 ± 0.23.

In the case of UCCAAGCAAUAUUACGGCAC, the “self-splicing fitness (ln)” value (30 °C) is reported as -4.06 ± 0.29 and the “self-splicing fitness (ln)” value (37 °C) is reported as -0.668 ± 0.11.

In the case of UCCAAGCAAUAUUACGGCAU, the “self-splicing fitness (ln)” value (30 °C) is reported as -3.77 ± 0.21 and the “self-splicing fitness (ln)” value (37 °C) is reported as -1.48 ± 0.12.

With UCCAAGCAAUAUUACGGCCC the “self-splicing fitness (ln)” value (37 °C) was -1.45 ± 0.32.

In the case of UCCAAGCAAUAUUACGGGGA, the “self-splicing fitness (ln)” value (30 °C) is reported as -2.58 ± 0.15 and the “self-splicing fitness (ln)” value (37 °C) is reported as -1.27 ± 0.1.

For UCCAAGCAAUAUUACGGUCU, the “self-splicing fitness (ln)” value (30 °C) was -2.33 ± 0.1 and the “self-splicing fitness (ln)” value (37 °C) was -0.343 ± 0.097.

For UCCAAGCAAUAUUACGGUUC, the “self-splicing fitness (ln)” value (30 °C) was -3.22 ± 0.22 and the “self-splicing fitness (ln)” value (37 °C) was -2.56 ± 0.18.

With UCCAAGCAAUAUUACGUAGG the “self-splicing fitness (ln)” value (30 °C) was -0.867 ± 0.06 and the “self-splicing fitness (ln)” value (37 °C) was -0.159 ± 0.094.

With UCCAAGCAAUAUUACGUCCG the “self-splicing fitness (ln)” value (30 °C) was -2.76 ± 0.21 and the “self-splicing fitness (ln)” value (37 °C) was -1.81 ± 0.19.

In the case of UCCAAGCAAUAUUACGUGGA, the “self-splicing fitness (ln)” value (30 °C) is reported as -2.9 ± 0.17 and the “self-splicing fitness (ln)” value (37 °C) is reported as -3.47 ± 0.29.

In the case of UCCAAGCAAUAUUACGUUAU, the “self-splicing fitness (ln)” value (30 °C) is reported as -2.78 ± 0.18 and the “self-splicing fitness (ln)” value (37 °C) is reported as -3.5 ± 0.37.

In the case of UCCCAGCAAUAUUACGAACC, the “self-splicing fitness (ln)” value (30 °C) is reported as -1.58 ± 0.2 and the “self-splicing fitness (ln)” value (37 °C) is reported as -2.08 ± 0.46.

With UCCCAGCAAUAUUACGACAU the “self-splicing fitness (ln)” value (30 °C) was -3.293 ± 0.018 and the “self-splicing fitness (ln)” value (37 °C) was -2.13 ± 0.035.

For UCCCAGCAAUAUUACGACUA, the “self-splicing fitness (ln)” value (30 °C) was -2.12 ± 0.15 and the “self-splicing fitness (ln)” value (37 °C) was -1.15 ± 0.15.

With UCCCAGCAAUAUUACGACUG the “self-splicing fitness (ln)” value (30 °C) was -3.58 ± 0.2 and the “self-splicing fitness (ln)” value (37 °C) was -3.16 ± 0.32.

For UCCCAGCAAUAUUACGAGUC, the “self-splicing fitness (ln)” value (30 °C) was -3.66 ± 0.18 and the “self-splicing fitness (ln)” value (37 °C) was -1.56 ± 0.17.

In the case of UCCCAGCAAUAUUACGAUAG, the “self-splicing fitness (ln)” value (30 °C) is reported as -3.91 ± 0.26 and the “self-splicing fitness (ln)” value (37 °C) is reported as -1.97 ± 0.23.

For UCCCAGCAAUAUUACGAUUG, the “self-splicing fitness (ln)” value (30 °C) was -3.56 ± 0.32 and the “self-splicing fitness (ln)” value (37 °C) was -3.17 ± 0.4.

In the case of UCCCAGCAAUAUUACGCAGG, the “self-splicing fitness (ln)” value (30 °C) is reported as -3.88 ± 0.29 and the “self-splicing fitness (ln)” value (37 °C) is reported as -3.54 ± 0.26.
